According to patent US9771395B2, “Enhanced influenza hemagglutinin binders” (UNIVERSITY OF WASHINGTON, priority 2014, dated 2017):
Where a chain is given by its changes, count along the chain named. In brackets after ≈: the same amount, converted by molar mass.

Assays:
CA09 virus [1] = experiment: Post-exposure (therapeutic) administration after CA09 challenge in BALB/c mice; type: in vivo; conditions: for protection from lethality: 10 MLD50 CA09
Method: All animal experiments used in this study were approved by the University of Washington Institutional Animal Care and Use Committee. […] […] In a therapeutic setting, mice received the protein binder 0 (2 hours post-infection), 1, 2, 3, or 4 days post infection. The mice were monitored daily for weight loss and survival until 14 days post-infection. Animals that lost more than 30% of their initial body weight were euthanized in accordance with our animal protocol. The SCID (NOD SCID gamma, strain NOD.Cg-Prkdcscid Il2rgtm1Wjl/SzJ) mice and the MyD88−/−(strain B6.129P2(SJL)-Myd88tm1.1Defr/J) mice were purchased from Jackson Laboratory.

[2] = test system: human (H1N1) and avian (H5N1) influenza viruses; experiment: microbe, parasite or virus in culture; type: cell-based, Influenza virus
[3] = test system: H1N1 A/California/07/2009 (CA09) virus; experiment: Pre-exposure administration and lethal influenza challenge in BALB/c mice; type: in vivo
Method: (§1) All animal experiments used in this study were approved by the University of Washington Institutional Animal Care and Use Committee. […] Two to forty-eight hours later, the mice were anesthetized by isoflurane and challenged intranasally with 10 MLD50 (fifty percent mouse lethal dose) of either A/California/07/09 (H1N1) (CA09) or A/PR/8/34 (H1N1) (PR8). In a therapeutic setting, mice received the protein binder 0 (2 hours post-infection), 1, 2, 3, or 4 days post infection. The mice were monitored daily for weight loss and survival until 14 days post-infection. Animals that lost more than 30% of their initial body weight were euthanized in accordance with our animal protocol. The SCID (NOD SCID gamma, strain NOD.Cg-Prkdcscid Il2rgtm1Wjl/SzJ) mice and the MyD88−/−(strain B6.129P2(SJL)-Myd88tm1.1Defr/J) mice were purchased from Jackson Laboratory.

CA09 virus [4] = experiment: Pre-exposure administration and CA09 challenge in SCID mice; type: in vivo, NOD SCID gamma (SCID) mice; conditions: 6.0 mg/kg IN 2 hrs before CA09
Method: as §1

CA09 virus [5] = experiment: Pre-exposure administration and CA09 challenge in MyD88-/- mice; type: in vivo; conditions: 6.0 mg/kg IN 2 hrs before CA09
Method: as §1

[6] = Bio-Plex inflammatory cytokines in lung homogenates after protein administration (no infection); type: in vivo, BALB/c mice; conditions: single IN dose 6.0 mg/kg
Method: The concentrations of cytokines in lung tissue were measured. […] Lungs were thawed, weighed and lysed using the Bio-Plex® Cell Lysis Kit (Bio-Rad, Hercules, Calif.). The levels of interleukin (IL)-6, IL-10. IL-12(p70), interferon (IFN)-γ, and tumor necrosis factor (TNF)-α in the lysate were measured using a Bio-Plex) multiplex bead array kit (Bio-Rad, Hercules, Calif.). The Bio-Plex® assay was performed in accordance with the manufacturer's instructions.

[7] = test system: Group I Hemagglutinin (HA) subtypes; type: binding, Influenza virus
[8] = biological target: Hemagglutinin (HA) of pandemic 2009 California H1N1 (Influenza A virus, UniProt C3W5S1)
[9] = mouse, in vivo
[10] = test system: A/California/07/2009 (CA09) influenza virus; set-up: species or system ferrets; conditions: in vivo
H5 HA = type: binding, Influenza virus
CA09 virus [11] = test system: CA09 virus; set-up: species or system BALB/c mice; conditions: mouse, in vivo
CA09 virus [12] = experiment: Lung immunohistochemistry for influenza nucleoprotein (NP) after CA09 challenge; type: in vivo, BALB/c mice
Method: During in vivo challenge experiments, lungs were removed from mice and immersed in 10% neutral buffered formalin. Following fixation, tissues were removed from formalin and placed in paraffin. Immunohistochemical staining was performed on the Leica Bond Automated Immunostainer. Sections were deparaffinized in Leica Bond Dewax Solution (Leica Cat No. AR922) and rehydrated through 100% EtOH. After antigen retrieval with EDTA buffer pH 9.0 (Lieca Bond Epitope Retrieval Solution 2, Cat No AR9640) at 100° C. for 20 minutes and blocking endogenous peroxidase activity with 3.0% H2O2 for 5 minutes and blocking with 10% Normal Donkey Serum in TBS for 20 minutes the sections were incubated with Goat anti Influenza A Virus, (Meridian Life Science Inc. Cat No. B65141G) at 1:2000 or Normal Goat IgG, isotype control. (Invitrogen Cat No. 02-6202) at (1:5000 dilution) both in Bond Primary Antibody Diluent (Leica Cat No. AR9352) for 30 minutes at room temperature. Sections were then incubated with Rabbit anti Goat IgG (Jackson ImmunoResearch Cat. No. 305-005-045) 1:1500+5% Normal Donkey Serum for 8 minutes at RT followed by incubation with Goat anti Rabbit Poly-HRP polymer secondary detection (Leica Cat No DS9800) for 8 minutes at room temperature. Sections were then incubated with Leica Bond Mixed Refine DAB substrate detection for 10 minutes at room temperature. (Leica Cat No DS9800). […]

CA09 virus [13] = experiment: Bio-Plex inflammatory cytokines in lung homogenates after CA09 challenge; type: in vivo, BALB/c mice; conditions: 6.0 mg/kg IN 24 hrs before or after CA09; day 2 p.i.; P≦0.00119
Method: The concentrations of cytokines in lung tissue were measured. On days 2 and 4 post-infection, 8 mice per group were sacrificed and whole lung tissue was collected and immediately frozen. Lungs were thawed, weighed and lysed using the Bio-Plex® Cell Lysis Kit (Bio-Rad, Hercules, Calif.). The levels of interleukin (IL)-6, IL-10. IL-12(p70), interferon (IFN)-γ, and tumor necrosis factor (TNF)-α in the lysate were measured using a Bio-Plex) multiplex bead array kit (Bio-Rad, Hercules, Calif.). The Bio-Plex® assay was performed in accordance with the manufacturer's instructions.

H2 HA = type: binding, Influenza virus
[14] = ELISA for serum binding antibodies against HB36.6 after repeat dosing; type: in vivo, mice; conditions: 3.0 mg/kg IN doses two weeks apart
Method: Plates were blocked with 5% nonfat milk powder in PBS for 1 h at room temperature, and then washed three times with wash buffer (PBS-T; phosphate-buffered saline containing 0.05% Tween 20). Two-fold serial dilutions of samples were added to the wells and plates were incubated for 1 hr at room temperature. Following three washes with PBS-T, plates were incubated with horseradish-peroxidase conjugated goat anti-mouse IgG (1/3,000 dilution) secondary antibodies (Thermo Scientific Pierce) for 1 h at room temperature. After five washes with PBS-T, TMB substrate (KPL) was added to the wells for 30 min at room temperature.

[15] = 0.01 mg/kg IN two hours prior to lethal CA09 challenge
[16] = 0.1 mg/kg IN two hours prior to lethal CA09 challenge
[17] = 1.0 mg/kg IN two hours prior to lethal CA09 challenge

**Q.** With `CCOC(=O)C1=C[C@@H](OC(CC)CC)[C@H](NC(C)=O)[C@@H](N)C1` [oseltamivir, reference compound] as the molecule, how does the survival (CA09 virus [1]; 5 mg/kg/day by oral gavage, twice daily for 5 days starting day +1 p.i., 3 MLD50 CA09) read?
**A.** 0%

**Q.** And the “delay of time to death compared to controls” value (CA09 virus [1]; 5 mg/kg/day by oral gavage, twice daily for 5 days starting day +1 p.i., p<0.001)?
**A.** about 2.5 days

**Q.** For `NC(=O)c1ncn([C@@H]2O[C@H](CO)[C@@H](O)[C@H]2O)n1` [Ribavirin, 1- -D-ribofuranosyl-1,2,4-triazole-3-carboxamide, reference compound], which EC50 ([2]; Influenza A virus, MDCK, read-out: EC50 range) is on record?
**A.** 15 to 18 µg/mL (≈ 61.4 to 73.7 µM)

**Q.** For lysozyme [reference compound], which protection ([3]; 6.0 mg/kg, 48 or 2 hrs before CA09 challenge) is on record?
**A.** no protection

**Q.** What about the “survival (protected mice)” value (CA09 virus [4]) of the same molecule?
**A.** 0%

**Q.** And the weight loss (CA09 virus [4])?
**A.** significant weight loss

**Q.** And the “survival (protected mice)” value (CA09 virus [5])?
**A.** 0%

**Q.** What about the weight loss (CA09 virus [5]) of the same molecule?
**A.** significant weight loss

B1: 1u84: scaffold protein (PDB ID 1u84) that HB36.6 is modeled on; non-protective control (protein)
chain: SNAMDGQQLNRLLLEWIGAWDPFGLGKDAYDVEAASVLQAVYETEDARTLAARIQSIYEFAFDEPIPFPHCLKLARRLLELKQAASCPLP
**Q.** What does the source list for B1?
**A.** protection (CA09 virus [1]; daily administration after CA09 challenge): no protection; survival (protected mice) (CA09 virus [4]): 0%; weight loss (CA09 virus [4]): significant weight loss; survival (protected mice) (CA09 virus [5]): 0%; weight loss (CA09 virus [5]): significant weight loss; cytokine levels by 48 hrs [6]: dropped to pre-administration levels

B2: HB36.6: HA stem binding protein, variant of HB36.5 with nine substitutions (SEQ ID NO: 3); FLAG-tagged in the studies (protein)
chain: SNAMDGQQLNRLLLENIGAWDPFGLGKDAYTYQAAEVLKAVYETNRAFDLAMRIHWIYNFAFKRRIPFARTQKLARRLLELKQAASSPLP
modifications: FLAG tag; (1)..(5) optionally absent; (86)..(90) optionally absent
notes: FLAG-tagged in the studies
**Q.** With B2 as the molecule, how does the “affinity compared with HB36.5” value [7] read?
**A.** higher affinity than HB36.5

**Q.** And the “cross-reactivity against Group I HA subtypes” value [7]?
**A.** broadly cross-reactive

**Q.** And the “off-rates (dissociation)” value [7]?
**A.** did not show well-defined off-rates

**Q.** What about the “Kd stronger than HB36.5” value [8] of the same molecule?
**A.** roughly 6 fold

**Q.** And the “Kd tighter than any known de novo binder” value [8]?
**A.** 5 fold

**Q.** And the Kd ([8]; read-out: Kd against pandemic 2009 California H1N1)?
**A.** 3.1 nM

**Q.** And the “detection of protein in lung tissue” value [9]?
**A.** readily detected throughout the lung tissue

**Q.** And the protection from lethality (CA09 virus [1]; 3.0 mg/kg IN daily for 4 days (days +1-4 p.i.))?
**A.** 100%

**Q.** What about the protection from lethality (CA09 virus [1]; single IN dose 3.0 mg/kg 2 hours p.i.) of the same molecule?
**A.** 100%

**Q.** What about the protection from lethality (CA09 virus [1]; single IN dose 3.0 mg/kg +1 day p.i.) of the same molecule?
**A.** 60%

**Q.** What about the rate of survival (CA09 virus [1]; single IN dose 10 mg/kg on day +1 p.i., 3 MLD50 CA09) of the same molecule?
**A.** 70%

**Q.** What about the “effect of a single dose on survivors” value (CA09 virus [1]; single IN dose 1.0-10 mg/kg on day +1 p.i., CA09, dose-responsive) of the same molecule?
**A.** increase in the number of survivors

**Q.** And the “50% effective concentration (EC50) range” value [2]?
**A.** 0.18 to 12.0 µg/mL

**Q.** And the “protection against influenza challenge in ferrets” value [10]?
**A.** affords prophylactic protection

**Q.** What about the “affinity increase over HB36.5” value (H5 HA) of the same molecule?
**A.** > 10 fold

**Q.** What about the “mice recovered and survived” value [3, 15] of the same molecule?
**A.** 20%

**Q.** What about the “survived longer than controls” value [3, 15] of the same molecule?
**A.** 2 to 3 days

**Q.** What about the weight loss [3, 15] of the same molecule?
**A.** exhibited weight loss

**Q.** And the survival [3, 16]?
**A.** 100%

**Q.** And the weight loss [3, 16]?
**A.** little

**Q.** And the survival [3, 17]?
**A.** 100%

**Q.** What about the weight loss [3, 17] of the same molecule?
**A.** no

**Q.** And the “protection from mortality and morbidity” value ([3]; lethal CA09 challenge 24 hours after the 4th dose (3.0 mg/kg IN), data not shown)?
**A.** 100%

**Q.** And the protection ([3]; same dose (6.0 mg/kg) delivered intravenously (IV), data not shown)?
**A.** no protection

**Q.** What about the survival ([3]; single IN dose 6.0 mg/kg at 2, 24 or 48 hours before 10 MLD50 CA09) of the same molecule?
**A.** 100%

**Q.** And the weight loss ([3]; single IN dose 6.0 mg/kg up to 48 hours before 10 MLD50 CA09)?
**A.** moderate to low

**Q.** What about the “reduction in mean viral titers in nasal washes vs untreated controls” value (CA09 virus [11]) of the same molecule?
**A.** 1-3 log-fold

**Q.** What about the “viral replication in the lungs vs untreated controls” value (CA09 virus [12]; 6.0 mg/kg IN 1 day before or post-infection, day 2 and day 4 p.i.) of the same molecule?
**A.** significantly less viral replication

**Q.** What about the “NP positive (infected) cells in lung tissue vs controls” value (CA09 virus [12]; 6.0 mg/kg IN as therapeutic, day 4, P≦0.0263) of the same molecule?
**A.** significantly lower number of infected cells

**Q.** And the “survival (protected mice)” value (CA09 virus [4])?
**A.** 100%

**Q.** And the weight loss (CA09 virus [4])?
**A.** minimal weight loss

**Q.** And the “survival (protected mice)” value (CA09 virus [5])?
**A.** 90%

**Q.** And the weight loss (CA09 virus [5])?
**A.** minimal weight loss

**Q.** What about the “inflammatory cytokine response in lung (IL-6, IL-10, IL-12p70, TNF-α, IFN-γ)” value (CA09 virus [13]) of the same molecule?
**A.** several cytokines were significantly lower than in the controls

**Q.** And the “affinity increase over HB36.5” value (H2 HA)?
**A.** greater than 40 fold

**Q.** And the “cytokine levels by 48 hrs” value [6]?
**A.** dropped to pre-administration levels

**Q.** What about the “cytokine levels compared with 1u84” value [6] of the same molecule?
**A.** significantly lower than levels induced by 1u84

**Q.** What about the “serum binding antibodies against HB36.6” value ([14]; after the 1st and 2nd dose) of the same molecule?
**A.** No antibodies against HB36.6 were detected

**Q.** And the “animals with low levels of antibody responses” value ([14]; by 3rd dose)?
**A.** 4 of the 10

B3: HB36.5: stable, broadly cross-reactive HA binding protein (SEQ ID NO: 4), parent of HB36.6 (protein)
chain: B2 chain with N16W, T31D, Q33E, N45E, R46S, R65Q, R70H, T71A
modifications: (1)..(5) optionally absent; (86)..(90) optionally absent
**Q.** With B3 as the molecule, how does the “cross-reactivity against Group I HA subtypes” value [7] read?
**A.** broadly cross-reactive
